Among the data in publication PMC4065332, “PEX14 binding to Arabidopsis PEX5 has differential effects on PTS1 and PTS2 cargo occupancy of the receptor” (Febs Letters, 2014) are binding result and Kd values, retold here.

Where no end group is shown, it is not given here. lissamine = lissamine: fluorescent label (lissamine) on the peptide

What all share (settings): both partners purified
In experiment [1] the target is T1, PEX5 (340–728), termed PEX5C (Arabidopsis thaliana, UniProt Q9FMA3 340-728).
T1 construct: Arabidopsis PEX5 residues 340-728; holds six of the nine W-X3-F/Y motifs and the TPR domain; lacks residues 314-334; also called His6-PEX5C; AtPEX5C; source: E. coli, purified via IMAC
T1 sequence (looked up): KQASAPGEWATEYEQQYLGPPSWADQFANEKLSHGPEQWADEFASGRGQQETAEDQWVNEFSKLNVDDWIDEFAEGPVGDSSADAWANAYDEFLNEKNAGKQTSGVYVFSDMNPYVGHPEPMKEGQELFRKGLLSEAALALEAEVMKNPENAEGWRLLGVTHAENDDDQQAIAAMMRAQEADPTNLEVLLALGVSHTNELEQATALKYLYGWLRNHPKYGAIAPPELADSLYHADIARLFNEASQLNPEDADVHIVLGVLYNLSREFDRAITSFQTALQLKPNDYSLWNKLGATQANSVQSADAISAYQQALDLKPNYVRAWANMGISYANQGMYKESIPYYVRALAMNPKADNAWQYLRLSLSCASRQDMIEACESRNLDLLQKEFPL
Nature of the experiment: far-Western, overlay or dot blot; purified PEX5 constructs pipetted onto nitrocellulose, blocked in 3% BSA PBS-T, probed 1 h with peptide-HRP (200 nM) or PEX14N-HRP (50 nM), ECL; for unloading then incubated with PEX14N 0.2 μM 1 h and 2 μM 16 h at 4 °C.

The target in experiment [2] is T1, PEX5 (340–728), termed PEX5C. Nature of the experiment: fluorescence polarisation; fluorescence anisotropy; the same dilution series of PEX5C with lissamine-YQSKL (100 nM) after addition of PEX14N to a constant 1 μM; HEPES 20 mM, NaCl 150 mM, pH 7.5.
For experiment [3] the target is unchanged. In words: fluorescence polarisation; fluorescence anisotropy; dilution series of PEX5C (1 μM–0.04 nM) with lissamine-YQSKL (100 nM); HEPES 20 mM, NaCl 150 mM, pH 7.5; fitted to a 1:1 binding model; without PEX14N.

B1: HRP–YQSKL (CGGGYQSKL coupled to HRP–maleimide) (peptide)
peptide: C(HRP‑maleimide)GGGYQSKL
notes: generic PTS1 cargo peptide; also called HRP-SKL; peptide-HRP; source: synthetic peptide, coupled to HRP-maleimide (Sigma)
As for B1, in experiment [1], the binding result is given as “binds”.

B2: lissamine-YQSKL (peptide)
peptide: lissamine-YQSKL
notes: canonical PTS1 cargo peptide; The name puts the lissamine before the peptide; also called lissamine-PTS1; PTS1
Regarding B2, the Kd was found to be 0.0115 ± 0.0034 µM in experiment [2] and 0.0086 ± 0.004 µM in experiment [3].

For orientation: Kd means the concentration at which binding is half-saturated. Read a high Kd as weaker binding.
